# Key:
# Conditions in all cases: protein: recombinant; tags: His6 tag, cleaved by thrombin; chain copies: 2
# [1] = molecular target: T1, NR7 deltaA/B (called full-length NR7), homodimer (Branchiostoma lanceolatum, UniProt A0A6B9UN24 30-389); assay: SEC-nMS; NR7 and RXR mixture; Oligos annealed in 10 mM Tris-HCl pH 8.0, 100 mM NaCl, 0.1 mM EDTA; protein dimer:DNA 1:1.2; native 8% PAGE in 60 mM Tris/40 mM CAPS pH 9.4, pre-run at 4 C; SEC-nMS buffer not given in the material
# [2] = molecular target: T1, NR7 deltaA/B (called full-length NR7), …; assay: SEC-nMS; Oligos annealed in 10 mM Tris-HCl pH 8.0, 100 mM NaCl, 0.1 mM EDTA; protein dimer:DNA 1:1.2; native 8% PAGE in 60 mM Tris/40 mM CAPS pH 9.4, pre-run at 4 C; SEC-nMS buffer not given in the material
# [3] = molecular target: T1, NR7 deltaA/B (called full-length NR7), …; assay: SEC-nMS; homodimer on DNA, 102405 Da; Oligos annealed in 10 mM Tris-HCl pH 8.0, 100 mM NaCl, 0.1 mM EDTA; protein dimer:DNA 1:1.2; native 8% PAGE in 60 mM Tris/40 mM CAPS pH 9.4, pre-run at 4 C; SEC-nMS buffer not given in the material
# T1 sequence (A0A6B9UN24 entry or part of it mutant): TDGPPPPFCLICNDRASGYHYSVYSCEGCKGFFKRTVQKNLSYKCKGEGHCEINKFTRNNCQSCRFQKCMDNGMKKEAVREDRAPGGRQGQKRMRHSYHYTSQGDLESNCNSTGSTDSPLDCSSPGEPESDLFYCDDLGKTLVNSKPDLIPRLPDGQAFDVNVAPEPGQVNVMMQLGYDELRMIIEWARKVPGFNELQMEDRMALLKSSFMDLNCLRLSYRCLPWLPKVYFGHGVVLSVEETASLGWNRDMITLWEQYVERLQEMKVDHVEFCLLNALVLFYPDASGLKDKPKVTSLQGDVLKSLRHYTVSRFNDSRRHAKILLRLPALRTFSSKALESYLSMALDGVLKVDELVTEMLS
binder,measurement,setting,value
IR3 (dsDNA) DNA 1: GATTTGAGGTCACAGTGACCTCACAG DNA 2: CTGTGAGGTCACTGTGACCTCAAATC,binding result,[1],binds
DR4 (dsDNA) DNA 1: ATTTGAGGTCACAGGAGGTCACACAG DNA 2: CTGTGTGACCTCCTGTGACCTCAAAT,binding result,[2],binds
DR0 (dsDNA) DNA 1: GATTTGAGGTCAAGGTCACACAGTTA DNA 2: TAACTGTGTGACCTTGACCTCAAATC,binding result,[3],binds
DR1 (dsDNA) DNA 1: GATTTGAGGTCAGAGGTCACACAGTT DNA 2: AACTGTGTGACCTCTGACCTCAAATC,binding result,[2],binds

# — PMC9535869, “A novel nuclear receptor subfamily enlightens the origin of heterodimerization”
